Results: US8846868B2, “Anti-AREG/HB-EGF antibodies and treatment” (Fusion Antibodies Limited, priority 2008, dated 2014)

Columns and labels:
cell growth = assay: Comparison of cross-specific antibody to Cetuximab, MTT cell viability; type: cell-based; conditions: cell growth assay
[1] = test system: pEGFR(Tyr1068) in MDA-MB231 cells; assay: Ligand stimulated phosphorylation of EGFR, MDA-MB231; type: cell-based, human; conditions: antibody pre-incubated with recombinant HBEGF 1 hour, 20 mins stimulation
Protocol: (§1) Cells were serum starved before addition of antibody and ligand. Cross-specific antibody (8d7 1f6 2f7, i.e. “2F7”) was pre-incubated with recombinant HBEGF for 1 hour before addition to cells. Cells were stimulated for 20 mins before preparation of cell lysates. 30 μg of protein was loaded on SDS-PAGE gel and transferred to nitrocellulose membrane. The membrane was probed with anti pEGFR(Tyr^1068)
(§2) 1.5×10^6 cells were seeded in […] in media containing 10% serum. 24 hrs after seeding cells were serum starved for 4 hrs. Antibodies were preincubated for 1 hour with 30 ng/ml of recombinant HBEGF before being added to cells for 20 mins in 2% serum. Cells were washed 3 times in PBS containing phosphatase inhibitors and scraped. Cells were pelleted and lysed. Protein concentration was determined and 30 ug of protein ran on SDS-PAGE for western blot analysis. Blots were probed with pEGFR(Tyr^1068) antibody.

[2] = test system: pEGFR(Tyr1068) in HCT116 cells; assay: Ligand stimulated phosphorylation of EGFR, HCT116; type: cell-based, human; conditions: antibody pre-incubated with recombinant HBEGF 1 hour, 20 mins stimulation
Protocol: as §1, §2

[3] = test system: pEGFR(Tyr 1068) in LoVo cells; assay: Ligand stimulated phosphorylation of EGFR, LoVo; type: cell-based; conditions: antibody pre-incubated with recombinant HBEGF 1 hour, 20 mins stimulation
Protocol: Cells were serum starved before addition of antibody and ligand. Cross-specific antibody (8d7 1f6 2f7, i.e. “2F7”) was pre-incubated with recombinant HBEGF for 1 hour before addition to cells. Cells were stimulated for 20 mins before preparation of cell lysates. 30 μg of protein was loaded on SDS-PAGE gel and transferred to nitrocellulose membrane. The membrane was probed with anti pEGFR(Tyr 1068)
as §2

[4] = test system: cancer cell proliferation; assay: Cancer cell proliferation, cross-specific antibody alone or with cpt11, MTT assay; type: cell-based; conditions: 100 nM antibody in combination with 10 μM cpt11; MTT 72 hrs
Protocol: Cells were treated with 100 nM isotype control or 100 nM cross-specific antibody (8d7 1f6 2f7 i.e. “2F7” or 8d7 1f6 2b3 i.e. “2B3” alone or in combination with 10 μM cpt11. Cells were analysed by MTT assay after 72 hrs treatment. ** indicates statistically significant P<0.001. 2B3 RI value is 0.99 therefore an additive effect. 2F7 RI value is 1.1 therefore (slightly) synergistic.
(§3) Cell viability was assessed by 3-(4,5-dimethylthiazol-2-yl)-2,5-diphenyltetrazolium bromide (MTT, Sigma) assay (Mosmann, 1983). To assess chemotherapy/siRNA interactions 5000 cells were seeded per well on 96 well plate. After 24 hours cells were transfected with siRNA and treated with various chemotherapeutic agents at different concentrations. After 48 hours MTT (1.0 mg/ml) was added to each well and cells were incubated at 37° C. for 2 hours. The culture media was removed and formazan crystals were reabsorbed in 200 μl DMSO. Cell viability was determined by reading the absorbance of each well at 570 nm using a microplate reader (Tecan Sunrise, Biorad, UK).

[5] = test system: colorectal cancer cell line LoVo; assay: HBEGF ligand stimulated growth, MTT assay; type: cell-based
Protocol: Different concentrations of cross-specific antibody was preincubated with ligand for an hour before addition to cells. Cell viability was assessed 48 hrs after treatment by MTT assay.
as §3

Work on `CCc1c2c(nc3ccc(OC(=O)N4CCC(N5CCCCC5)CC4)cc13)-c1cc3c(c(=O)n1C2)COC(=O)[C@]3(O)CC` [cpt-11, irinotecan] yielded an IC30 (cell growth) of 5 µM.

B1: 8d7 1f6 2f7: cross-specific AREG/HBEGF murine monoclonal antibody; VH Sequence ID No: 7, VL Sequence ID No: 8 (antibody, listed as Mus musculus)
VH: MKCSWIIFFLMAVVTGVNSEVQLQQSGAELVRPGALVKLSCKASGFNIKDSYIHWVNQRPEQGLEWIGWIDPENGNTIYDPKFQGKASITADTSSNTAYLQLSSLTSEDTAVYYCVSASYRYGFSYWGQGTLVTVSAAKTTPPPVYPLAPGSL
VL: MRAPAQFLGLLVLWIPGAIGDIVMTQAAPSVPVTPGESVSISCRSNKSLLHTNGNTYLYWFLQRPGQSPQLLIYRMSNLASGVPDRFSGSGSGTAFTLRISRVEAEDVGVYYCMQHLEYPYTFGGGTKLEIKRADAAPTVSIFPPSSKLG
With B1 the “inhibition of HBEGF stimulated phosphorylation of EGFR” value (“inhibition … of EGFR” for short) [1] was “inhibition of ligand stimulation phosphorylation of EGFR”, the “inhibition … of EGFR” value [2] was “inhibition of ligand stimulation phosphorylation of EGFR” and the “inhibition … of EGFR” value [3] was “inhibition of ligand stimulation phosphorylation of EGFR”. For the same molecule, the RI value [4] was 1.1.

B2: 8d7 1f6 2b3: cross-specific AREG/HBEGF murine monoclonal antibody; VH Sequence ID No: 9, VL Sequence ID No: 10 (antibody, listed as Mus musculus)
VH: MKCSWVMFFLMAVVTGVNSEVQLQQSGAELVRPGALVKLSCKASGFNIKDSYIHWVNQRPEQGLEWIGWIDPENGNTIYDPKFQGKASITADTSSNTAYLQLSSLTSEDTAVYYCVSASYRYGFSYWGQGTLVTVSAAKTTPPPVYPLAPGSL
VL: MRPPLSFLGLLVLWIPGAIGDIVMTQAAPSVPVTPGESVSISCRSNKSLLHTNGNTYLYWFLQRPGQSPQLLIYRMSNLASGVPDRFSGSGSGTAFTLRISRVEAEDVGVYYCMQHLEYPYTFGGGTKLEIKRADAAPTVSIFPPSSKLG
For B2, the RI value [4] was 0.99.

B3: Recombinant HBEGF: recombinant HBEGF ligand used to stimulate cell growth and EGFR phosphorylation (protein)
chain: DLQEADLDLLRVTLSSKPQALATPNKEEHGKRKKKGKGLGKKRDPCLRKYKDFCIHGECKYVKELRAPSCICHPGYHGERCHGLSL
With B3 the stimulation of growth ([5]; recombinant HBEGF ligand, MTT 48 hrs) was “approximately 60%”.

B4: 8d7 1c8 1e9: cross-specific AREG/HBEGF murine monoclonal antibody; VH Sequence ID No: 5, VL Sequence ID No: 6 (antibody, listed as Mus musculus)
VH: MEWSWVILFLMAVVTGVNSEVQLQQSGAELVRPGALVKLSCKASGFNIKDSYIHWVNQRPEQGLEWIGWIDPENGNTIYDPKFQGKASITADTSSNTAYLQLSSLTSEDTAVYYCVSASYRYGFSYWGQGTLVTVSAAKTTPPSVYPWVPGSLX
VL: XADXISISCRSNKSLLHTNGNTYLYWFLQRPGQSPQLLIYRMSNLASGVPDRFSGSGSGTAFTLRISRVEAEDVGVYYCMQHLEYPYTFGGGTKLEIKRXX
modifications: not fully specified; (154)..(154) Xaa can be any naturally occurring amino acid; (1)..(1) Xaa can be any naturally occurring amino acid
With B4 the “effect on HBEGF stimulation of cell growth” value ([5]; 300 nM antibody) was “prevents any stimulation of cell growth by HBEGF” and the “inhibition of ligand induced growth” value ([5]; different antibody concentrations pre-incubated with HBEGF 1 hr, MTT 48 hrs) was “inhibit the ligand induced growth in a dose dependent manner”.
